Measured values: the supplement of paper PMC6757056
± gives the standard deviation of the averaged measurements.

B1: library; a variant is named by its letters at N, in order (parent)
chain: GCUGUCACCGGUGUAUUACCCUAGUGGUCGACCGGUCUGAUGAGUCUNNNNNNAGACGAAACAGC

Experiments:
hypoxanthine [1] = variants of: B1; test: normalized RNA/DNA level with ligand (relative to sTRSVctl = 100) (log10 (% of sTRSVctl)); ligand: hypoxanthine (xanthine aptamer); higher = less ribozyme self-cleavage, higher mRNA level; details: ligand concentration (+) RNA-Seq: 5 mM, HEK293T, reporter: mCherry (pCS4076), ligand present: yes
Method in brief: (§1)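 HEK293T cells received ligand, where used, 1 h before being transfected with 4 µg per 6-well well of library plasmids encoding reporter-linked ribozyme switches. After 72 h, RNA was extracted with EDTA and sequenced. RNA level was derived from RNA reads per DNA read, normalized to a spiked-in non-cleaving sequence or the top sequences, then scaled and log-transformed. Values were ×100 then log10, the top set was 25 sequences, and the minimum was 100 DNA reads.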

hypoxanthine [2] = variants of: B1; test: normalized RNA/DNA level without ligand (relative to sTRSVctl = 100) (log10 (% of sTRSVctl)); ligand: hypoxanthine (xanthine aptamer); higher = less ribozyme self-cleavage, higher mRNA level; details: HEK293T, reporter: mCherry (pCS4076), ligand present: no
Method in brief: as §1

| Variant | normalized RNA/DNA level with ligand (log10) (hypoxanthine [1]) | normalized RNA/DNA level without ligand (log10) (hypoxanthine [2]) |
| --- | --- | --- |
| UACGAC | 1.9194 ± 0.00024 | 1.804 ± 0.0045 |
| CACUCC | 1.93 ± 0.021 | 1.92 ± 0.063 |
| CACUCU | 1.963 ± 0.0079 | 1.91 ± 0.026 |
| CACUCA | 1.93 ± 0.024 | 1.89 ± 0.033 |
| CACUCG | 1.99 ± 0.066 | 1.92 ± 0.062 |
| UACUUC | 1.98 ± 0.05 | 2 ± 0.058 |
| UACUUA | 1.95 ± 0.026 | 1.88 ± 0.033 |
| GACCGA | 1.97 ± 0.032 | 1.8545 ± 0.00036 |
| GACCGC | 1.89 ± 0.029 | 1.7634 ± 0.0011 |
| CACAUU | 1.909 ± 0.017 | 1.86 ± 0.031 |
| CACAUG | 1.91 ± 0.075 | 1.857 ± 0.017 |
| GACCCA | 1.928 ± 0.0094 | 1.833 ± 0.0075 |
| AACAUU | 1.91 ± 0.053 | 1.873 ± 0.011 |
| AACAUC | 1.95 ± 0.022 | 2.02 ± 0.022 |
| GACCAU | 1.932 ± 0.0042 | 1.838 ± 0.0066 |
| GACCAC | 1.94 ± 0.022 | 1.835 ± 0.017 |
| CACUGU | 2 ± 0.021 | 1.97 ± 0.022 |
| CACUGA | 1.95 ± 0.049 | 1.83 ± 0.022 |
| CACUGC | 1.96 ± 0.037 | 1.909 ± 0.0035 |
| UACUGG | 1.884 ± 0.015 | 1.491 ± 0.0069 |
| UACUGA | 1.95 ± 0.019 | 1.74 ± 0.02 |
| UACUGC | 1.97 ± 0.072 | 1.846 ± 0.0079 |
| UACCGC | 1.942 ± 0.0069 | 1.8 ± 0.039 |
| CACUUA | 1.87 ± 0.057 | 1.779 ± 0.0095 |

| Variant | normalized RNA/DNA level with ligand (log10) (hypoxanthine [1]) | normalized RNA/DNA level without ligand (log10) (hypoxanthine [2]) |
| --- | --- | --- |
| UACGUC | 2.0228 ± 0.00028 | 1.94 ± 0.051 |
| UACGUU | 1.956 ± 0.0074 | 1.86 ± 0.042 |
| UACGUG | 1.86 ± 0.063 | 1.6 ± 0.009 |
| UACGUA | 1.88 ± 0.09 | 1.829 ± 0.004 |
| CACCCC | 1.96 ± 0.025 | 1.8889 ± 0.0018 |
| CACCCU | 1.96 ± 0.034 | 1.91 ± 0.096 |
| CACCCA | 1.958 ± 0.016 | 1.83 ± 0.019 |
| CACCCG | 1.94 ± 0.028 | 1.906 ± 0.01 |
| CACCAG | 1.97 ± 0.057 | 1.81 ± 0.061 |
| CACCAA | 1.9 ± 0.032 | 1.79 ± 0.082 |
| CACCAU | 1.92 ± 0.021 | 1.8 ± 0.024 |
| CACGCG | 1.9257 ± 1.5e-05 | 1.88 ± 0.029 |
| CACGCC | 1.99 ± 0.047 | 1.839 ± 0.015 |
| CACGCA | 1.92 ± 0.054 | 1.81 ± 0.041 |
| CACCGC | 2.015 ± 0.0091 | 1.91 ± 0.042 |
| CACCGU | 1.93 ± 0.064 | 1.892 ± 0.011 |
| CACCGG | 1.875 ± 0.0026 | 1.58 ± 0.13 |
| AACCCU | 1.932 ± 0.0028 | 1.8887 ± 0.0015 |
| AACCCC | 1.97 ± 0.082 | 1.87 ± 0.043 |
| CACGUG | 1.92 ± 0.028 | 1.79 ± 0.095 |
| CACGUU | 1.96 ± 0.024 | 1.864 ± 0.0061 |
| CACGUC | 1.98 ± 0.061 | 1.971 ± 0.005 |
| UACCCA | 1.96 ± 0.057 | 1.89 ± 0.024 |
| UACCCU | 1.9818 ± 0.00074 | 1.916 ± 0.015 |

| Variant | normalized RNA/DNA level with ligand (log10) (hypoxanthine [1]) | normalized RNA/DNA level without ligand (log10) (hypoxanthine [2]) |
| --- | --- | --- |
| UACCCG | 1.93 ± 0.073 | 1.692 ± 0.0093 |
| CACGGA | 1.912 ± 0.0058 | 1.8 ± 0.048 |
| CACGGG | 1.84 ± 0.033 | 1.32 ± 0.019 |
| CACGGC | 1.965 ± 0.003 | 1.87 ± 0.013 |
| GACGGG | 1.885 ± 0.0056 | 1.41 ± 0.039 |
| GACGGC | 1.95 ± 0.07 | 1.63 ± 0.055 |
| GACGGA | 1.92 ± 0.047 | 1.683 ± 0.0063 |
| GACGGU | 1.95 ± 0.036 | 1.797 ± 0.0024 |
| GACUUA | 1.88 ± 0.0036 | 1.84 ± 0.023 |
| GACUUC | 1.9476 ± 0.0019 | 1.98 ± 0.098 |
| UACUCC | 2 ± 0.058 | 1.964 ± 0.011 |
| UACUCU | 1.915 ± 0.0075 | 1.91 ± 0.026 |
| UACUCG | 1.929 ± 0.009 | 1.72 ± 0.072 |
| GACUAC | 1.94 ± 0.026 | 1.804 ± 0.0039 |
| GACUAG | 1.837 ± 0.011 | 1.47 ± 0.045 |
| GACGCA | 1.91 ± 0.052 | 1.82 ± 0.034 |
| GACGCC | 1.9 ± 0.04 | 1.79 ± 0.054 |
| GACGCG | 1.872 ± 0.0041 | 1.51 ± 0.11 |
| CACCUC | 1.99 ± 0.081 | 1.969 ± 0.011 |
| CACCUG | 2.01 ± 0.064 | 1.922 ± 0.009 |
| CACCUA | 1.921 ± 0.0097 | 1.76 ± 0.11 |
| UACAUC | 1.979 ± 0.018 | 2 ± 0.03 |
| UACAUU | 1.941 ± 0.0099 | 1.855 ± 0.016 |
| UACAUA | 1.93 ± 0.038 | 1.86 ± 0.024 |

| Variant | normalized RNA/DNA level with ligand (log10) (hypoxanthine [1]) | normalized RNA/DNA level without ligand (log10) (hypoxanthine [2]) |
| --- | --- | --- |
| AACCAA | 1.91 ± 0.037 | 1.78 ± 0.072 |
| AACCAU | 1.873 ± 0.0073 | 1.8 ± 0.04 |
| AACUCU | 1.9 ± 0.039 | 1.898 ± 0.015 |
| AACUCC | 2 ± 0.067 | 1.922 ± 0.011 |
| AACUCA | 1.975 ± 0.012 | 1.88 ± 0.023 |
| GACCUA | 1.935 ± 0.01 | 1.85 ± 0.033 |
| GACCUC | 1.93 ± 0.031 | 1.909 ± 0.0094 |
| GACCUU | 1.95 ± 0.033 | 1.885 ± 0.015 |
| AACCUU | 1.9 ± 0.054 | 1.895 ± 0.0019 |
| AACCUA | 1.93 ± 0.028 | 1.84 ± 0.047 |
| AACCUC | 1.937 ± 0.018 | 1.96 ± 0.027 |
| UACCAC | 1.88 ± 0.045 | 1.793 ± 0.016 |
| UACCAU | 1.914 ± 0.0031 | 1.832 ± 0.0068 |
| AACGUU | 1.91 ± 0.0075 | 1.829 ± 0.017 |
| GACAUC | 1.97 ± 0.081 | 1.93 ± 0.077 |
| GACAUU | 1.92 ± 0.057 | 1.856 ± 0.0056 |
| UACGGU | 1.847 ± 0.0077 | 1.59 ± 0.064 |
| GACGUG | 1.83 ± 0.095 | 1.29 ± 0.024 |
| GACGUA | 1.92 ± 0.033 | 1.773 ± 0.0082 |
| GACGUC | 1.95 ± 0.046 | 1.85 ± 0.019 |
| CACGAC | 1.95 ± 0.028 | 1.84 ± 0.0038 |
| CACGAU | 1.95 ± 0.027 | 1.78 ± 0.043 |
| CACGAG | 1.9 ± 0.035 | 1.6 ± 0.026 |
| CACUAC | 1.9 ± 0.07 | 1.8 ± 0.034 |

| Variant | normalized RNA/DNA level with ligand (log10) (hypoxanthine [1]) | normalized RNA/DNA level without ligand (log10) (hypoxanthine [2]) |
| --- | --- | --- |
| CACUAU | 1.908 ± 0.018 | 1.845 ± 0.013 |
| CACUAG | 1.901 ± 0.0088 | 1.759 ± 0.0057 |
| GACUCA | 1.97 ± 0.029 | 1.892 ± 0.0056 |
| GACUCC | 1.989 ± 0.019 | 1.96 ± 0.04 |
| GACUCU | 1.94 ± 0.092 | 1.93 ± 0.029 |
| AACGCA | 1.9072 ± 0.0004 | 1.76 ± 0.03 |
| UACCUU | 1.927 ± 0.017 | 1.89 ± 0.054 |
| UACCUC | 1.99 ± 0.082 | 1.93 ± 0.067 |
| GACUGU | 1.89 ± 0.033 | 1.8123 ± 0.00033 |
| GACUGC | 1.905 ± 0.01 | 1.66 ± 0.052 |
| AACUUC | 1.96 ± 0.023 | 1.96 ± 0.023 |
| UACAGU | 1.8101 ± 0.00016 | 1.52 ± 0.066 |
| UACGCU | 1.95 ± 0.067 | 1.846 ± 0.012 |
| UACGCG | 1.893 ± 0.018 | 1.62 ± 0.069 |
| UACGCC | 2 ± 0.079 | 1.82 ± 0.036 |
| AACGAU | 1.9 ± 0.028 | 1.653 ± 0.011 |
| UACUAU | 1.89 ± 0.027 | 1.83 ± 0.05 |
| UACUAC | 1.95 ± 0.056 | 1.926 ± 0.0063 |
| CACAGG | 1.77 ± 0.089 | 1.26 ± 0.06 |
| CACAGU | 1.926 ± 0.0077 | 1.844 ± 0.0086 |
